Data published in article PMC3554864.

Biological target: NS3 helicase (NS3, with protease domain) (Hepatitis C virus (genotype ), UniProt Q9WMX2 1027-1657)
Test: KMnO4 footprinting

NS3 helicase (NS3, with protease domain), sequence (Q9WMX2 1027-1657): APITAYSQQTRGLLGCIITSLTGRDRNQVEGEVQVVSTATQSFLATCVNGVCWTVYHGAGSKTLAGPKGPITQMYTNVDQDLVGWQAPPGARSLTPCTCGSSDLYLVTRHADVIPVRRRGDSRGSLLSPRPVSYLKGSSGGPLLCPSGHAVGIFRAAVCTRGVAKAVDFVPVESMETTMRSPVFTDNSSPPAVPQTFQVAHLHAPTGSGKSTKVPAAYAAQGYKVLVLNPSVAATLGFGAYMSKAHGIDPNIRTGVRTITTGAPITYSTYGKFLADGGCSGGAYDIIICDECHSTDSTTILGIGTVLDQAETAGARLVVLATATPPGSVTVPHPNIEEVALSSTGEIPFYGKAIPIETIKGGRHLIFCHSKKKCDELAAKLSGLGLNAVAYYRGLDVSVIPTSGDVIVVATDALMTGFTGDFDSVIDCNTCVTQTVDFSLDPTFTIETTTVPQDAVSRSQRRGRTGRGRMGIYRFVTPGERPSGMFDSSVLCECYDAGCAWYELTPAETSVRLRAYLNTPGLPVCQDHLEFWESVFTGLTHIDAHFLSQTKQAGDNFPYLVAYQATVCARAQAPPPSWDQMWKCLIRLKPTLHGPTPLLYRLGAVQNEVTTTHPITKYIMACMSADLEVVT

B1: 30mer blunt duplex (dsDNA)
DNA 1: GCTCTCTGTCTGTCTGTGTCTCTGTCTCTG
DNA 2: CAGAGACAGAGACACAGACAGACAGAGAGC
modifications: biotin (position not stated for this duplex)
binding result: binds
